According to patent US20150344570A1 (published 2015):

T1: FcγRIIa H (FcgRIIa type H, His at position 131), extracellular domain with C-terminal His tag (human, UniProt P12318 34-217)
T1 construct: extracellular domain; also called 2aH; FcgRIIa H; not shown: His tag at the C terminus
T1 sequence (looked up): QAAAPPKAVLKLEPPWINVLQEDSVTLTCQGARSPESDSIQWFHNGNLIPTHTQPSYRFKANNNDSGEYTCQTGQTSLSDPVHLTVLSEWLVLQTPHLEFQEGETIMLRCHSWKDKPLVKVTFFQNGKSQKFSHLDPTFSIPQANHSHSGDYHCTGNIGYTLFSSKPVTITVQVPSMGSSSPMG

T2: FcγRIIb, extracellular domain with C-terminal His tag (human, UniProt P31994 43-217)
T2 construct: extracellular domain; also called 2b; FcgRIIb; not shown: His tag at the C terminus
T2 sequence (looked up): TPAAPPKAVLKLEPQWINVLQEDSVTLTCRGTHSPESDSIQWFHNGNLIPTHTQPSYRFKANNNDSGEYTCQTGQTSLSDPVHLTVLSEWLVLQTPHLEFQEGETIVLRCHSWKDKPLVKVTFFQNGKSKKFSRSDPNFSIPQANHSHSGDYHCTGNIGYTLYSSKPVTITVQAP

T3: FcγRIIb extracellular domain with C-terminal His tag (human, UniProt P31994 43-217)
T3 construct: extracellular domain; also called 2b; FcgRIIb
T3 sequence (looked up): T2 sequence (looked up)

B1: GpH7-A5/GpH7-B3 variant A327_10E/GpL16-k0 (antibody, human IgG1, kappa)
heavy 1: not shown
heavy 2: not shown
light: DIVMTQSPLSLPVTPGEPASISCQASESLVHSNRNTYLHWYLQKPGQSPQLLIYKVSNRFSGVPDRFSGSGSGTDFTLKISRVEAEDVGVYYCSQNTHVPPTFGQGTKVEIERTVAAPSVFIFPPSDEQLKSGTASVVCLLNNFYPREAKVQWKVDNALQSGNSQESVTEQDSKDSTYSLSSTLTLSKADYEKHKVYACEVTHQGLSSPVTKSFNRGEC
notes: He Ab; alteration in one H chain only; also called He Ab
B2: GpH7-A5/GpH7-B3 variant A327_18N/GpL16-k0 (antibody, human IgG1, kappa)
heavy 1: not shown
heavy 2: not shown
light: B1 light
notes: as for B1
B3: GpH7-A5/GpH7-B3 variant K326_15Y/GpL16-k0 (antibody, human IgG1, kappa)
heavy 1: not shown
heavy 2: not shown
light: B1 light
notes: as for B1
B4: GpH7-A5/GpH7-B3 variant A330_05P/GpL16-k0 (antibody, human IgG1, kappa)
heavy 1: not shown
heavy 2: not shown
light: B1 light
notes: as for B1
B5: GpH7-A5/GpH7-B3 variant A330_01G/GpL16-k0 (antibody, human IgG1, kappa)
heavy 1: not shown
heavy 2: not shown
light: B1 light
notes: as for B1
B6: GpH7-A5/GpH7-B3 variant A327_01G/GpL16-k0 (antibody, human IgG1, kappa)
heavy 1: not shown
heavy 2: not shown
light: B1 light
notes: as for B1
B7: GpH7-A5/GpH7-B3 variant A327_07I/GpL16-k0 (antibody, human IgG1, kappa)
heavy 1: not shown
heavy 2: not shown
light: B1 light
notes: as for B1
B8: GpH7-A5/GpH7-B3 variant E333_09D/GpL16-k0 (antibody, human IgG1, kappa)
heavy 1: not shown
heavy 2: not shown
light: B1 light
notes: also called He Ab
B9: GpH7-A5/GpH7-B3 variant S337_01G/GpL16-k0 (antibody, human IgG1, kappa)
heavy 1: not shown
heavy 2: not shown
light: B1 light
notes: also called He Ab
B10: GpH7-A5/GpH7-B3 variant K334_09D/GpL16-k0 (antibody, human IgG1, kappa)
heavy 1: not shown
heavy 2: not shown
light: B1 light
notes: also called He Ab
B11: GpH7-A5/GpH7-B3 variant T335_05P/GpL16-k0 (antibody, human IgG1, kappa)
heavy 1: not shown
heavy 2: not shown
light: B1 light
notes: also called He Ab
B12: GpH7-A5/GpH7-B3 variant S324_15Y/GpL16-k0 (antibody, human IgG1, kappa)
heavy 1: not shown
heavy 2: not shown
light: B1 light
notes: also called He Ab
B13: GpH7-A5/GpH7-B3 variant I332_19Q/GpL16-k0 (antibody, human IgG1, kappa)
heavy 1: not shown
heavy 2: not shown
light: B1 light
notes: also called He Ab
B14: GpH7-A5/GpH7-B3 variant S324_09D/GpL16-k0 (antibody, human IgG1, kappa)
heavy 1: not shown
heavy 2: not shown
light: B1 light
notes: also called He Ab
B15: GpH7-A5/GpH7-B3 variant S324_02A/GpL16-k0 (antibody, human IgG1, kappa)
heavy 1: not shown
heavy 2: not shown
light: B1 light
notes: also called He Ab
B16: GpH7-A5/GpH7-B3 variant E333_16H/GpL16-k0 (antibody, human IgG1, kappa)
heavy 1: not shown
heavy 2: not shown
light: B1 light
notes: also called He Ab
B17: GpH7-A5/GpH7-B3 variant I336_09D/GpL16-k0 (antibody, human IgG1, kappa)
heavy 1: not shown
heavy 2: not shown
light: B1 light
notes: also called He Ab
B18: GpH7-A5/GpH7-B3 variant S324_20W/GpL16-k0 (antibody, human IgG1, kappa)
heavy 1: not shown
heavy 2: not shown
light: B1 light
notes: also called He Ab
B19: GpH7-A5/GpH7-B3 variant I332_01G/GpL16-k0 (antibody, human IgG1, kappa)
heavy 1: not shown
heavy 2: not shown
light: B1 light
notes: also called He Ab
B20: GpH7-A5/GpH7-B3 variant S298_02A/GpL16-k0 (antibody, human IgG1, kappa)
heavy 1: not shown
heavy 2: not shown
light: B1 light
notes: also called He Ab; GpH7-A5/GpH7-B3-15-02A/GpL16-k0
B21: GpH7-A5/GpH7-B3 variant E333_20W/GpL16-k0 (antibody, human IgG1, kappa)
heavy 1: not shown
heavy 2: not shown
light: B1 light
notes: also called He Ab
B22: GpH7-A5/GpH7-B3 variant I336_03V/GpL16-k0 (antibody, human IgG1, kappa)
heavy 1: not shown
heavy 2: not shown
light: B1 light
notes: also called He Ab
B23: GpH7-A5/GpH7-B3 variant S324_01G/GpL16-k0 (antibody, human IgG1, kappa)
heavy 1: not shown
heavy 2: not shown
light: B1 light
notes: also called He Ab
B24: GpH7-A5/GpH7-B3 variant S324_14T/GpL16-k0 (antibody, human IgG1, kappa)
heavy 1: not shown
heavy 2: not shown
light: B1 light
notes: also called He Ab
B25: GpH7-A5/GpH7-B3 variant Q295_14T/GpL16-k0 (antibody, human IgG1, kappa)
heavy 1: not shown
heavy 2: not shown
light: B1 light
notes: also called He Ab
B26: GpH7-A5/GpH7-B3 variant T335_06M/GpL16-k0 (antibody, human IgG1, kappa)
heavy 1: not shown
heavy 2: not shown
light: B1 light
notes: also called He Ab
B27: GpH7-A5/GpH7-B3 variant I336_10E/GpL16-k0 (antibody, human IgG1, kappa)
heavy 1: not shown
heavy 2: not shown
light: B1 light
notes: also called He Ab
B28: GpH7-A5/GpH7-B3 variant S324_16H/GpL16-k0 (antibody, human IgG1, kappa)
heavy 1: not shown
heavy 2: not shown
light: B1 light
notes: also called He Ab
B29: GpH7-A5/GpH7-B3 variant I336_14T/GpL16-k0 (antibody, human IgG1, kappa)
heavy 1: not shown
heavy 2: not shown
light: B1 light
notes: also called He Ab
B30: GpH7-A5/GpH7-B3 variant E333_13S/GpL16-k0 (antibody, human IgG1, kappa)
heavy 1: not shown
heavy 2: not shown
light: B1 light
notes: also called He Ab
B31: GpH7-A5/GpH7-B3 variant S337_04F/GpL16-k0 (antibody, human IgG1, kappa)
heavy 1: not shown
heavy 2: not shown
light: B1 light
notes: also called He Ab
B32: GpH7-A5/GpH7-B3 variant I336_18N/GpL16-k0 (antibody, human IgG1, kappa)
heavy 1: not shown
heavy 2: not shown
light: B1 light
notes: also called He Ab
B33: GpH7-A5/GpH7-B3 variant S298_14T/GpL16-k0 (antibody, human IgG1, kappa)
heavy 1: not shown
heavy 2: not shown
light: B1 light
notes: also called He Ab
B34: GpH7-A5/GpH7-B3 variant I332_13S/GpL16-k0 (antibody, human IgG1, kappa)
heavy 1: not shown
heavy 2: not shown
light: B1 light
notes: also called He Ab
B35: GpH7-A5/GpH7-B3 variant Q295_10E/GpL16-k0 (antibody, human IgG1, kappa)
heavy 1: not shown
heavy 2: not shown
light: B1 light
notes: also called He Ab
B36: GpH7-A5/GpH7-B3 variant S298_03V/GpL16-k0 (antibody, human IgG1, kappa)
heavy 1: not shown
heavy 2: not shown
light: B1 light
notes: also called He Ab
B37: GpH7-A5/GpH7-B3 variant Q295_02A/GpL16-k0 (antibody, human IgG1, kappa)
heavy 1: not shown
heavy 2: not shown
light: B1 light
notes: also called He Ab
B38: GpH7-A5/GpH7-B3 variant K334_01G/GpL16-k0 (antibody, human IgG1, kappa)
heavy 1: not shown
heavy 2: not shown
light: B1 light
notes: also called He Ab
B39: GpH7-A5/GpH7-B3 variant I336_02A/GpL16-k0 (antibody, human IgG1, kappa)
heavy 1: not shown
heavy 2: not shown
light: B1 light
notes: also called He Ab
B40: GpH7-A5/GpH7-B3 variant Y300_08L/GpL16-k0 (antibody, human IgG1, kappa)
heavy 1: not shown
heavy 2: not shown
light: B1 light
notes: also called He Ab
B41: GpH7-A5/GpH7-B3 variant I336_13S/GpL16-k0 (antibody, human IgG1, kappa)
heavy 1: not shown
heavy 2: not shown
light: B1 light
notes: also called He Ab

target: T1, FcγRIIa H (FcgRIIa type H, His at …); assay: SPR (Biacore), relative binding, GpH7-A5/GpH7-B3/GpL16-k0 = 100

He/Con_2aH	Binder
91.3 % of control	B1
66.8 % of control	B2
98.3 % of control	B3
85.7 % of control	B4
99 % of control	B5
97.2 % of control	B6
58.4 % of control	B7

target: T2, FcγRIIb, extracellular domain with …; assay: as above

He/Con_2b	Binder
140 % of control	B1
113 % of control	B2
159 % of control	B3
137 % of control	B4
104 % of control	B5
116 % of control	B6
127 % of control	B7

target: T3, FcγRIIb extracellular domain with …; assay: SPR, binding relative to GpH7-A5/GpH7-B3/GpL16-k0 = 100
Method: (§1) The heterodimerized antibodies He Abs in which one of the H chains was introduced with an alteration were assayed for their binding activities to each activating FcγR and inhibitory FcγR according to the method described in Example 4. […] The activating FcγRs in FIGS. 26, 27, 28, and 29 are FcγRIa, FcγRIIa (R), FcγRIIa (H), and FcγRIIIa, respectively.
(§2) Analysis of interaction between objective antibody and the FcγR was carried out using Biacore T100 (GE Healthcare). HBS-EP+ (GE Healthcare) was used as the running buffer, and the measurement temperature was set to 25° C. Chips produced by immobilizing the antigen peptide by the amine coupling method to a Series S Sencor Chip CM5 (GE Healthcare), or alternatively, chips produced by allowing preliminarily biotinylated antigen peptides to interact with and immobilize onto a Series S Sensor Chip SA (certified) (GE Healthcare) were used. Antibodies of interest were captured onto an antigen peptide-immobilized chip, and allowed to interact to each FcγR diluted with running buffer. To regenerate and repeatedly use the chip, the antibodies captured on the chip were washed off by reacting 10 mM glycine-HCl, pH 1.5.

He/Con_2b	Binder
94.3 % of control	B8
92 % of control	B9
94.8 % of control	B10
99.9 % of control	B11
88.2 % of control	B12
94.3 % of control	B13
85.8 % of control	B14
78.3 % of control	B15
83.3 % of control	B16
92.1 % of control	B17
87.5 % of control	B18
87.1 % of control	B19
73.4 % of control	B20
89.5 % of control	B21
90.3 % of control	B22
81.1 % of control	B23
88.4 % of control	B24

He/Con_2b	Binder
66.8 % of control	B25
99.4 % of control	B26
89.8 % of control	B27
83.5 % of control	B28
89.5 % of control	B29
81.8 % of control	B30
97.8 % of control	B31
97.6 % of control	B32
77.9 % of control	B33
98.4 % of control	B34
94.8 % of control	B35
64.5 % of control	B36
79.7 % of control	B37
92.5 % of control	B38
84.9 % of control	B39
73.6 % of control	B40
83.7 % of control	B41

target: T4, FcγRIIIa extracellular domain with C-terminal His tag (human, UniProt P08637 17-208); assay: as above
T4 construct: extracellular domain; also called 3a; FcgRIIIa
Method: as §1, §2

T4 sequence (P08637 17-208): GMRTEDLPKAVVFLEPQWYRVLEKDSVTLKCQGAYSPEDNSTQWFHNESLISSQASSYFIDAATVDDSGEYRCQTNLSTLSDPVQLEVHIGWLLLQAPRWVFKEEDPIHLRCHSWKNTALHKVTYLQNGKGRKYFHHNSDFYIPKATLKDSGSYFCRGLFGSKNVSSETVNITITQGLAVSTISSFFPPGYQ

He/Con_3a	Binder
112 % of control	B8
102 % of control	B9
160 % of control	B10
105 % of control	B11
101 % of control	B12
110 % of control	B13
101 % of control	B14
104 % of control	B15
103 % of control	B16
106 % of control	B17
102 % of control	B18
111 % of control	B19
160 % of control	B20
101 % of control	B21
112 % of control	B22
105 % of control	B23
103 % of control	B24

He/Con_3a	Binder
115 % of control	B25
102 % of control	B26
119 % of control	B27
104 % of control	B28
108 % of control	B29
103 % of control	B30
101 % of control	B31
104 % of control	B32
113 % of control	B33
104 % of control	B34
100 % of control	B35
109 % of control	B36
106 % of control	B37
121 % of control	B38
111 % of control	B39
105 % of control	B40
102 % of control	B41
